According to patent publication US20230250154A1 (CYTONICS, published 2023):

What was measured:
Test in all cases: cell-based or functional assay
MMP8 = MMP8 (human, UniProt P22894 101-467, limits assumed)
ADAMTS5 = biological target: T1, ADAMTS5 (human, UniProt Q9UNA0 262-622, limits assumed)
T1 sequence (looked up): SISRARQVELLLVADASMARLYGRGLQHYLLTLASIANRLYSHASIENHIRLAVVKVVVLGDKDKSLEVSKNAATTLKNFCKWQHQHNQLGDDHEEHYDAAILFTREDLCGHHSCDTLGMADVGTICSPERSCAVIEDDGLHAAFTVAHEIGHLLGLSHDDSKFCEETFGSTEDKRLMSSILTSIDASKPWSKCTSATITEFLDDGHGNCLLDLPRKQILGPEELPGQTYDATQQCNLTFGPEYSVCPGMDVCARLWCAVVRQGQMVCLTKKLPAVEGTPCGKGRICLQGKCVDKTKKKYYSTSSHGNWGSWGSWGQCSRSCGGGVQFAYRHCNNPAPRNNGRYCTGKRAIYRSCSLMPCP

MMP13 = MMP13 (human, UniProt P45452 104-471, limits assumed)
MMP3 = MMP3 (human, UniProt P08254 100-477, limits assumed)
Cathepsin G = biological target: T2, Cathepsin G (UniProt P08311 21-244)
T2 sequence (looked up): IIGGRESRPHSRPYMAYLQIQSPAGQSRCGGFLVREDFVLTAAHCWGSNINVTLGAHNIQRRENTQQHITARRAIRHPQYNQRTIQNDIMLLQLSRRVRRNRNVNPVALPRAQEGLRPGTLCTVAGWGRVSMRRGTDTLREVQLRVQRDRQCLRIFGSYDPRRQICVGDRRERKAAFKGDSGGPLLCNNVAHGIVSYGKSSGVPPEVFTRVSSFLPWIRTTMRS

MMP9 = MMP9 (human, UniProt P14780 107-707, limits assumed)
MMP1 = biological target: T3, MMP1 (human, UniProt P03956 100-469, limits assumed)
T3 sequence (looked up): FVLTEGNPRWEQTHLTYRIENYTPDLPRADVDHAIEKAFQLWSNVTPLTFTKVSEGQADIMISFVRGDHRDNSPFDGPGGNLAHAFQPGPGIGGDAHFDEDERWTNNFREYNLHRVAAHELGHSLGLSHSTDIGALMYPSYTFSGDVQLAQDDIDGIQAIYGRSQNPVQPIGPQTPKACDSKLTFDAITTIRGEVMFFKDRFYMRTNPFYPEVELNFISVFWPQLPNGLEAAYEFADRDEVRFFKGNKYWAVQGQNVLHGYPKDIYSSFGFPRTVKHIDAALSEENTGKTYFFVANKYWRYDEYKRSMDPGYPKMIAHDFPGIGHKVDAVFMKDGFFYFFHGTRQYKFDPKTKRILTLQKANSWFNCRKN

Elastase = biological target: Elastase
MMP2 = biological target: T4, MMP2 (human, UniProt P08253 110-660, limits assumed)
T4 sequence (looked up): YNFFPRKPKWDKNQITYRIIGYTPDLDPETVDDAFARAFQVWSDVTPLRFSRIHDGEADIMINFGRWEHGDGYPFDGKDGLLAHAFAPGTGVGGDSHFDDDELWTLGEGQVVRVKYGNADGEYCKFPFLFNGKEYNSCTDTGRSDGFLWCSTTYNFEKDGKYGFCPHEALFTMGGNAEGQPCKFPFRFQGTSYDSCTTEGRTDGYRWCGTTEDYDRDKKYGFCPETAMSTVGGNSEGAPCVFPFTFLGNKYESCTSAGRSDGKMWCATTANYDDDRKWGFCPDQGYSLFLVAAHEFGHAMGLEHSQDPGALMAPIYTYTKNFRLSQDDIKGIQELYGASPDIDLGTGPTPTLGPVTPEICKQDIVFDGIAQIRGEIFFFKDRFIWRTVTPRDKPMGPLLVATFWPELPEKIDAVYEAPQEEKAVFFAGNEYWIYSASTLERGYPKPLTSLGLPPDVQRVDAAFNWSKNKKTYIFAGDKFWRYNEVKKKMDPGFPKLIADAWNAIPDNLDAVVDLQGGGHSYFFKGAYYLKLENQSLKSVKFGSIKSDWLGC

MMP7 = biological target: T5, MMP7 (UniProt P09237 95-267, limits assumed)
T5 sequence (looked up): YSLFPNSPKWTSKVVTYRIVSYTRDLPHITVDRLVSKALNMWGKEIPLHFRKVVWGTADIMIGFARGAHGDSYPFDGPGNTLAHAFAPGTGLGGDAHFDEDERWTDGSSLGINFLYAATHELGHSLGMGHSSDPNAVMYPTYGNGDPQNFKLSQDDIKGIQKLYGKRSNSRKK

ADAMTS4 = biological target: T6, ADAMTS4 (human, UniProt O75173 213-685, limits assumed)
T6 sequence (looked up): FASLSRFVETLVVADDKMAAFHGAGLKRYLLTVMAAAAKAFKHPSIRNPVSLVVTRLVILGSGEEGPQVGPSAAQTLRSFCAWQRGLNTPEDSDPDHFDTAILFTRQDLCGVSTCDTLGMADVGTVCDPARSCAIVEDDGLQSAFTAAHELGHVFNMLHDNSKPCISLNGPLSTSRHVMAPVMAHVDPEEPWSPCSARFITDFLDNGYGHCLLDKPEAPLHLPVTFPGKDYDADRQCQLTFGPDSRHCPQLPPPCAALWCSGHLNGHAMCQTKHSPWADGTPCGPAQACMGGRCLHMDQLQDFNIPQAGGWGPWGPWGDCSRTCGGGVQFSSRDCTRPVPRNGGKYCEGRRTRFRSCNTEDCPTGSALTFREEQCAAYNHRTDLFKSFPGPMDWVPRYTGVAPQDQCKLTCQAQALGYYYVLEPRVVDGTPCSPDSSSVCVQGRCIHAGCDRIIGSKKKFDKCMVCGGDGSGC

Sequence of MMP8 (P22894 101-467 limits assumed): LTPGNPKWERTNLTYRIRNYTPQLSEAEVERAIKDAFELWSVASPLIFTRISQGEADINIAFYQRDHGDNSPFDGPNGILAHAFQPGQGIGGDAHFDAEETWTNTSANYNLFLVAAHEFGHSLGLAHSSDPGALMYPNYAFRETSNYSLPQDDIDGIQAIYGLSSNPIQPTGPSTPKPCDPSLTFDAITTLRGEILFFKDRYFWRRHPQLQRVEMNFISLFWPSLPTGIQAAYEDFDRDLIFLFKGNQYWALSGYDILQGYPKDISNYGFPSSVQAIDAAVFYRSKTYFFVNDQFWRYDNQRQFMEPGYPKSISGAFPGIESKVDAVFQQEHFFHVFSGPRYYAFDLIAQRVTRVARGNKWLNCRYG
Sequence of MMP3 (P08254 100-477 limits assumed): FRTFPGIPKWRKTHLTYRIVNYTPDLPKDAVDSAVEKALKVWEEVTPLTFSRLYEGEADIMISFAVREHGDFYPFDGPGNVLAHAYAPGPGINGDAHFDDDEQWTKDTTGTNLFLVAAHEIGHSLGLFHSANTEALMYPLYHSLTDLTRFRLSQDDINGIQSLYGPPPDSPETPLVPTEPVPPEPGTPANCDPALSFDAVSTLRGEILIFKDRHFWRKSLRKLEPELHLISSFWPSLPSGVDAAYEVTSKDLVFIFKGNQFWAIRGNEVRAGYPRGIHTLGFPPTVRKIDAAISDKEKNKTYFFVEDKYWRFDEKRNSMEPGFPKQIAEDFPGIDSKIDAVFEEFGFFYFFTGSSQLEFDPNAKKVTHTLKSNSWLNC
Sequence of MMP9 (P14780 107-707 limits assumed): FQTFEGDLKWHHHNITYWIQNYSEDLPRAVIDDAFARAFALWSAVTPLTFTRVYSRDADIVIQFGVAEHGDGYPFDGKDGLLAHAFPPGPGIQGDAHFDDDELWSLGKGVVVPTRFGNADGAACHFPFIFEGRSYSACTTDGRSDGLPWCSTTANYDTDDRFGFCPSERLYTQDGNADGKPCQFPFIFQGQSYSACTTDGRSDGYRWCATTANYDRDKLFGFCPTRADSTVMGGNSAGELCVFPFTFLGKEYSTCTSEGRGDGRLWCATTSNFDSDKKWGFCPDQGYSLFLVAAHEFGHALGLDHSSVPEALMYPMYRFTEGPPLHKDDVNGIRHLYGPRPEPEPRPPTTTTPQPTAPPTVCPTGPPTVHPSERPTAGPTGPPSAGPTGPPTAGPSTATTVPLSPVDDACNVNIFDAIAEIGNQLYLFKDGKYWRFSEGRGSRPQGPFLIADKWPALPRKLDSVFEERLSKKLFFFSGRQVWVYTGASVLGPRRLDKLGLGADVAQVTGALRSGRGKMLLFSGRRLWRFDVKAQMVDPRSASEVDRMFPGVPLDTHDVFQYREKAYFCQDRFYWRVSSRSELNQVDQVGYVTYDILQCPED

B1: Variant A2M, bait region SEQ ID NO 12 (other)
chain: SVSGKPQYMVLVPSLLHTETTEKGCVLLSYLNETVTVSASLESVRGNRSLFTDLEAENDVLHCVAFAVPKSSSNEEVMFLTVQVKGPTQEFKKRTTVMVKNEDSLVFVQTDKSIYKPGQTVKFRVVSMDENFHPLNELIPLVYIQDPKGNRIAQWQSFQLEGGLKQFSFPLSSEPFQGSYKVVVQKKSGGRTEHPFTVEEFVLPKFEVQVTVPKIITILEEEMNVSVCGLYTYGKPVPGHVTVSICRKYSDASDCHGEDSQAFCEKFSGQLNSHGCFYQQVKTKVFQLKRKEYEMKLHTEAQIQEEGTVVELTGRQSSEITRTITKLSFVKVDSHFRQGIPFFGQVRLVDGKGVPIPNKVIFIRGNEANYYSNATTDEHGLVQFSINTTNVMGTSLTVRVNYKDRSPCYGYQWVSEEHEEAHHTAYLVFSPSKSFVHLEPMSHELPCGHTQTVQAHYILNGGTLLGLKKLSFYYLIMAKGGIVRTGTHGLLVKQEDMKGHFSISIPVKSDIAPVARLLIYAVLPTGDVIGDSAKYDVENCLANKVDLSFSPSQSLPASHAHLRVTAAPQSVCALRAVDQSVLLMKPDAELSASSVYNLLPEKDLTGFPGPLNDQDDEDCINRHNVYINGITYTPVSSTNEKDMYSFLEDMGLKAFTNSKIRKPKMCPQLEHGPEGEGEGEIPENFEFRGVSEDLVVQISELEGRGSVEEPHTKLRKYFPETWIWDLVVVNSAGVAEVGVTVPDTITEWKAGAFCLSEDAGLGISSTASLRAFQPFFVELTMPYSVIRGEAFTLKATVLNYLPKCIRVSVQLEASPAFLAVPVEKEQAPHCICANGRQTVSWAVTPKSLGNVNFTVSAEALESQELCGTEVPSVPEHGRKDTVIKPLLVEPEGLEKETTFNSLLCPSGGEVSEELSLKLPPNVVEESARASVSVLGDILGSAMQNTQNLLQMPYGCGEQNMVLFAPNIYVLDYLNETQQLTPEIKSKAIGYLNTGYQRQLNYKHYDGSYSTFGERYGRNQGNTWLTAFVLKTFAQARAYIFIDEAHITQALIWLSQRQKDNGCFRSSGSLLNNAIKGGVEDEVTLSAYITIALLEIPLTVTHPVVRNALFCLESAWKTAQEGDHGSHVYTKALLAYAFALAGNQDKRKEVLKSLNEEAVKKDNSVHWERPQKPKAPVGHFYEPQAPSAEVEMTSYVLLAYLTAQPAPTSEDLTSATNIVKWITKQQNAQGGFSSTQDTVVALHALSKYGAATFTRTGKAAQVTIQSSGTFSSKFQVDNNNRLLLQQVSLPELPGEYSMKVTGEGCVYLQTSLKYNILPEKEEFPFALGVQTLPQTCDEPKAHTSFQISLSVSYTGSRSASNMAIVDVKMVSGFIPLKPTVKMLERSNHVSRTEVSSNHVLIYLDKVSNQTLSLFFTVLQDVPVRDLKPAIVKVYDYYETDEFAIAEYNAPCSKDLGNADYKDDDDKGASHHHHHH
- Protease Inhibition (% of WT) (MMP8): 54 % of WT
- Protease Inhibition (% of WT) (ADAMTS5): 440 % of WT
- Protease Inhibition (% of WT) (MMP13): 72 % of WT
- Protease Inhibition (% of WT) (MMP3): 182 % of WT
- Protease Inhibition (% of WT) (Cathepsin G): 105 % of WT
- Protease Inhibition (% of WT) (MMP9): 0 % of WT
- Protease Inhibition (% of WT) (MMP1): 108 % of WT
- Protease Inhibition (% of WT) (Elastase): 117 % of WT
- Protease Inhibition (% of WT) (MMP2): 16 % of WT
- Protease Inhibition (% of WT) (MMP7): 160 % of WT
- Protease Inhibition (% of WT) (ADAMTS4): 208 % of WT

B2: Variant A2M, bait region SEQ ID NO 13 (other)
chain: SVSGKPQYMVLVPSLLHTETTEKGCVLLSYLNETVTVSASLESVRGNRSLFTDLEAENDVLHCVAFAVPKSSSNEEVMFLTVQVKGPTQEFKKRTTVMVKNEDSLVFVQTDKSIYKPGQTVKFRVVSMDENFHPLNELIPLVYIQDPKGNRIAQWQSFQLEGGLKQFSFPLSSEPFQGSYKVVVQKKSGGRTEHPFTVEEFVLPKFEVQVTVPKIITILEEEMNVSVCGLYTYGKPVPGHVTVSICRKYSDASDCHGEDSQAFCEKFSGQLNSHGCFYQQVKTKVFQLKRKEYEMKLHTEAQIQEEGTVVELTGRQSSEITRTITKLSFVKVDSHFRQGIPFFGQVRLVDGKGVPIPNKVIFIRGNEANYYSNATTDEHGLVQFSINTTNVMGTSLTVRVNYKDRSPCYGYQWVSEEHEEAHHTAYLVFSPSKSFVHLEPMSHELPCGHTQTVQAHYILNGGTLLGLKKLSFYYLIMAKGGIVRTGTHGLLVKQEDMKGHFSISIPVKSDIAPVARLLIYAVLPTGDVIGDSAKYDVENCLANKVDLSFSPSQSLPASHAHLRVTAAPQSVCALRAVDQSVLLMKPDAELSASSVYNLLPEKDLTGFPGPLNDQDDEDCINRHNVYINGITYTPVSSTNEKDMYSFLEDMGLKAFTNSKIRKPKMCPQLEHGPRYLTAEGEGEGIPENFFGVSEDLVVQISELEGRGSVEEPHTKLRKYFPETWIWDLVVVNSAGVAEVGVTVPDTITEWKAGAFCLSEDAGLGISSTASLRAFQPFFVELTMPYSVIRGEAFTLKATVLNYLPKCIRVSVQLEASPAFLAVPVEKEQAPHCICANGRQTVSWAVTPKSLGNVNFTVSAEALESQELCGTEVPSVPEHGRKDTVIKPLLVEPEGLEKETTFNSLLCPSGGEVSEELSLKLPPNVVEESARASVSVLGDILGSAMQNTQNLLQMPYGCGEQNMVLFAPNIYVLDYLNETQQLTPEIKSKAIGYLNTGYQRQLNYKHYDGSYSTFGERYGRNQGNTWLTAFVLKTFAQARAYIFIDEAHITQALIWLSQRQKDNGCFRSSGSLLNNAIKGGVEDEVTLSAYITIALLEIPLTVTHPVVRNALFCLESAWKTAQEGDHGSHVYTKALLAYAFALAGNQDKRKEVLKSLNEEAVKKDNSVHWERPQKPKAPVGHFYEPQAPSAEVEMTSYVLLAYLTAQPAPTSEDLTSATNIVKWITKQQNAQGGFSSTQDTVVALHALSKYGAATFTRTGKAAQVTIQSSGTFSSKFQVDNNNRLLLQQVSLPELPGEYSMKVTGEGCVYLQTSLKYNILPEKEEFPFALGVQTLPQTCDEPKAHTSFQISLSVSYTGSRSASNMAIVDVKMVSGFIPLKPTVKMLERSNHVSRTEVSSNHVLIYLDKVSNQTLSLFFTVLQDVPVRDLKPAIVKVYDYYETDEFAIAEYNAPCSKDLGNADYKDDDDKGASHHHHHH
- Protease Inhibition (% of WT) (MMP8): 81 % of WT
- Protease Inhibition (% of WT) (ADAMTS5): 194 % of WT
- Protease Inhibition (% of WT) (MMP13): 76 % of WT
- Protease Inhibition (% of WT) (MMP3): 189 % of WT
- Protease Inhibition (% of WT) (Cathepsin G): 54 % of WT
- Protease Inhibition (% of WT) (MMP9): 71 % of WT
- Protease Inhibition (% of WT) (MMP1): 91 % of WT
- Protease Inhibition (% of WT) (Elastase): 97 % of WT
- Protease Inhibition (% of WT) (MMP2): 65 % of WT
- Protease Inhibition (% of WT) (MMP7): 128 % of WT
- Protease Inhibition (% of WT) (ADAMTS4): 290 % of WT
